# Key:
# Assay in all cases: cell-based or functional assay
# [1] = biological target: human IL-17A, untagged, E. coli derived (in house or Peprotech) (human) (UniProt Q16552)
# [2] = biological target: human IL-17A derived from the HEK-EBNA expression system (human) (UniProt Q16552)
# [3] = biological target: cynomolgus IL-17A (cynomolgus)
# Sequence of cynomolgus IL-17A (cynomolgus) (Q16552 other isoform, or with tags, fused parts or gaps limits assumed): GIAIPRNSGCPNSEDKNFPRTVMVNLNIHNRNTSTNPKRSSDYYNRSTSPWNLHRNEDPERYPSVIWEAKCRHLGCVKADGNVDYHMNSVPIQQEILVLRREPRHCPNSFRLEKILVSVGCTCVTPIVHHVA
# Sequence of human IL-17A, untagged, E. coli derived (in house or Peprotech) (human) (Q16552 24-155): as the sequence (Q16552 other isoform, or with tags, fused parts or gaps limits assumed) above, with A3T, S8P, S34N, V77I, K78N, R104P counted along it
# Sequence of human IL-17A derived from the HEK-EBNA expression system (human) (Q16552 24-155): as the sequence (Q16552 other isoform, or with tags, fused parts or gaps limits assumed) above, with A3T, S8P, S34N, V77I, K78N, R104P counted along it
"cartilage explant IL-6 (IL-17A 10 ng/ml + TNF 1 ng/ml), % inhibition at 50 nM antibody [1]","cartilage explant IL-6 (pg/ml), mean, IL-17A 10 ng/ml + TNF 1 ng/ml + antibody (55.00 pg/ml without antibody) [1]","HT1080 IL-6 release, IgG IC50 [2]","HT1080 IL-6 release, IgG IC50 [3]","OA synovial fibroblast IL-8 (IL-17A 1 ng/ml + TNF 0.01 ng/ml), % Inhibition at 50 nM antibody [1]","OA synovial fibroblast IL-8 (IL-17A 10 ng/ml + TNF 1 ng/ml), % Inhibition at 50 nM antibody [1]",Substance
13.8%,47.4 pg/mL,–,–,–,–,"mIgG1 isotype control (mouse IgG1, R & D Systems) (antibody)"
–,–,3.2 nM,14.1 nM,–,–,mAb317 (R & D Systems) (antibody)
3.3%,53.2 pg/mL,–,–,-1.3%,-3.9%,"hIgG1 isotype control (human IgG1 CAT002, Cambridge Antibody Technology Limited)"

# From patent publication US20080044423A1
